Publication doi:10.1101/2021.03.08.433449 (bioRxiv, 2021)

Tests used:
[1] = biological target: monomeric human Fc-fused SARS-CoV-2_RBD-SD1 (SARS-CoV-2 (Wuhan-Hu-1), UniProt P0DTC2); assay: BLI
[2] = biological target: mouse IgG1 Fc fused SARS-CoV-1 RBD (Sino Biological, 40150-V05H) (SARS-CoV-1, isolate not named, UniProt P59594); assay: BLI
[3] = biological target: SARS-CoV-2 spike expressed on the surface of HEK293 cells (SARS-CoV-2 (Wuhan-Hu-1), UniProt P0DTC2); assay: flow cytometry on cells

B1: humVHH_S56A (VHH)
VHH: EVQLVESGGGLVQPGGSLRLSCAASGRTFSEYAMGWFRQAPGKEREFVATISWSGGATYYTDSVKGRFTISRDNAKNTVYLQMNSLRPEDTAVYYCAAAGLGTVVSEWDYDYDYWGQGTLVTVSS
fold increase in affinity over humVHH [1]: ~7 fold
binding result [2]: binds

B2: humVHH (VHH)
VHH: EVQLVESGGGLVQPGGSLRLSCAASGRTFSEYAMGWFRQAPGKEREFVATISWSGGSTYYTDSVKGRFTISRDNAKNTVYLQMNSLRPEDTAVYYCAAAGLGTVVSEWDYDYDYWGQGTLVTVSS
binding result [1]: binds
binding result [3]: binds
